This is an account of results in the supplement of paper PMC9112550, “Optimization of the antimicrobial peptide Bac7 by deep mutational scanning” (BMC Biology, 2022).
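Further: peptides expressed intracellularly from a pBAD plasmid library in pooled LB shake-flask culture, induced with 0.3% L-arabinose, DNA abundance read by NGS, three biological replicates, DESeq2 with apeglm shrinkage.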

The subject of the data set is Escherichia coli TOP10. The data set can be described thus: shrunken log2 fold change of peptide-encoding DNA abundance (4.5 h post-induction vs induction); higher = less antimicrobial activity (less host growth inhibition). Conditions: time post-induction: 4.5 h; library: site-saturation at positions 5, 18, 19, 20.
With RRIRIRPPRLPRPRPRPHHYPRP, the “shrunken log2 fold change” value was -0.429. Regarding RRIRERPPRLPRPRPRPRWKPRP, the “shrunken log2 fold change” value is -0.0289. The value for RRIRVRPPRLPRPRPRPMHPPRP was 0.0843; that for RRIRLRPPRLPRPRPRPCLWPRP was -0.000705; that for RRIRVRPPRLPRPRPRPHYWPRP was -0.336. Under RRIRWRPPRLPRPRPRPDHLPRP stands 0.08; under RRIRCRPPRLPRPRPRPWQVPRP, 0.00859. Under RRIRYRPPRLPRPRPRPEKVPRP stands -0.241; under RRIRLRPPRLPRPRPRPTCYPRP, -0.371; under RRIRGRPPRLPRPRPRPNSKPRP, 0.0993.

For the sequence RRIRTRPPRLPRPRPRPYYMPRP, the “shrunken log2 fold change” value was -1.06. As for RRIRRRPPRLPRPRPRPQQIPRP, the “shrunken log2 fold change” value was -0.0299. The value for RRIRKRPPRLPRPRPRPMCKPRP was 0.0429.

Take RRIRRRPPRLPRPRPRPTHIPRP: the “shrunken log2 fold change” value was 0.274.

Regarding RRIRMRPPRLPRPRPRPPCKPRP, the “shrunken log2 fold change” value is -0.0348. RRIRIRPPRLPRPRPRPIRWPRP: the “shrunken log2 fold change” value was 0.0124. The value for RRIRCRPPRLPRPRPRPALHPRP was 0.179; that for RRIRVRPPRLPRPRPRPHRGPRP was -0.0736; that for RRIRGRPPRLPRPRPRPLHWPRP was 0.627. Under RRIRQRPPRLPRPRPRPKRWPRP stands 0.0413; under RRIRFRPPRLPRPRPRPTYAPRP, -0.203; under RRIRCRPPRLPRPRPRPHQNPRP, -0.276. The value for RRIRVRPPRLPRPRPRPEWCPRP was 0.323; that for RRIRYRPPRLPRPRPRPVMIPRP was -0.596; that for RRIRCRPPRLPRPRPRPYVKPRP was -0.647.

RRIRQRPPRLPRPRPRPITMPRP: the “shrunken log2 fold change” value came to 0.00801. Under RRIRERPPRLPRPRPRPCHNPRP stands -0.0168; under RRIRSRPPRLPRPRPRPSSWPRP, 0.206. The value for RRIRMRPPRLPRPRPRPNAMPRP was 0.16. For the sequence RRIRFRPPRLPRPRPRPQASPRP, the “shrunken log2 fold change” value was 0.0447. The value for RRIRMRPPRLPRPRPRPPTYPRP was 0.306. As for RRIRIRPPRLPRPRPRPIGLPRP, the “shrunken log2 fold change” value was -0.242.

RRIRGRPPRLPRPRPRPVRQPRP: the “shrunken log2 fold change” value came to 0.883.

Take RRIRIRPPRLPRPRPRPYVEPRP: the “shrunken log2 fold change” value is -0.0566. Consider RRIRARPPRLPRPRPRPPYRPRP, for which the “shrunken log2 fold change” value was -0.0935. On to RRIRWRPPRLPRPRPRPSVSPRP, for which the “shrunken log2 fold change” value was determined as 0.104. The value for RRIRMRPPRLPRPRPRPWSRPRP was 0.163; that for RRIRNRPPRLPRPRPRPMWIPRP was -0.148; that for RRIRMRPPRLPRPRPRPGKNPRP was 0.417. The value for RRIRKRPPRLPRPRPRPCMRPRP was 0.0327. Regarding RRIRLRPPRLPRPRPRPVNWPRP, the “shrunken log2 fold change” value is 0.0772. The value for RRIRYRPPRLPRPRPRPCNLPRP was -0.958. Under RRIRIRPPRLPRPRPRPALNPRP stands -0.484. Under RRIRMRPPRLPRPRPRPLDKPRP stands 1.96; under RRIRDRPPRLPRPRPRPWGEPRP, 0.0987; under RRIRNRPPRLPRPRPRPSRGPRP, 0.513. With RRIRKRPPRLPRPRPRPRNTPRP, the “shrunken log2 fold change” value is -0.0381.

With RRIRTRPPRLPRPRPRPNNSPRP, the “shrunken log2 fold change” value was -0.61. The value for RRIRHRPPRLPRPRPRPIYKPRP was -0.393; that for RRIRTRPPRLPRPRPRPFAYPRP was -0.136. The value for RRIRWRPPRLPRPRPRPGTFPRP was -0.0686; that for RRIRERPPRLPRPRPRPAAFPRP was -0.0909. Under RRIRNRPPRLPRPRPRPKHIPRP stands -0.438. In the case of RRIRTRPPRLPRPRPRPVDFPRP, the “shrunken log2 fold change” value amounted to 0.231. The value for RRIRVRPPRLPRPRPRPVFIPRP was -0.144; that for RRIRVRPPRLPRPRPRPEILPRP was -0.0486; that for RRIRLRPPRLPRPRPRPQYWPRP was -0.275. The value for RRIRKRPPRLPRPRPRPSIVPRP was -0.059; that for RRIRGRPPRLPRPRPRPKIVPRP was 0.278; that for RRIRCRPPRLPRPRPRPTWMPRP was -0.18. As for RRIRCRPPRLPRPRPRPTLHPRP, the “shrunken log2 fold change” value was -0.0488. For RRIRQRPPRLPRPRPRPRWWPRP, the “shrunken log2 fold change” value amounted to 0.417. The value for RRIRRRPPRLPRPRPRPVQHPRP was -0.0478; that for RRIRIRPPRLPRPRPRPFWWPRP was 0.0783. Under RRIRARPPRLPRPRPRPAMYPRP stands 0.0624. Under RRIRYRPPRLPRPRPRPLEPPRP stands -0.124. With RRIRPRPPRLPRPRPRPTRSPRP, the “shrunken log2 fold change” value turned out to be 0.365. For the sequence RRIRLRPPRLPRPRPRPRTNPRP, the “shrunken log2 fold change” value amounted to 0.113. The value for RRIRTRPPRLPRPRPRPTHHPRP was -0.0136; that for RRIRPRPPRLPRPRPRPVTGPRP was -0.0902; that for RRIRHRPPRLPRPRPRPVCVPRP was -0.216. The value for RRIRCRPPRLPRPRPRPPQIPRP was 0.328; that for RRIRVRPPRLPRPRPRPSVHPRP was -0.0573; that for RRIRSRPPRLPRPRPRPGLFPRP was 0.163. The value for RRIRGRPPRLPRPRPRPHDQPRP was 0.62; that for RRIRHRPPRLPRPRPRPKKWPRP was -0.0201; that for RRIRSRPPRLPRPRPRPKQKPRP was -0.000384.

On to RRIRLRPPRLPRPRPRPVLPPRP, for which the “shrunken log2 fold change” value was -0.0546.

Take RRIRRRPPRLPRPRPRPKVEPRP: the “shrunken log2 fold change” value was -0.0016.

On to RRIRLRPPRLPRPRPRPECKPRP, for which the “shrunken log2 fold change” value came out at 0.0726.

Regarding RRIRARPPRLPRPRPRPLQEPRP, the “shrunken log2 fold change” value turned out to be 0.604. Regarding RRIRLRPPRLPRPRPRPCSAPRP, the “shrunken log2 fold change” value was -0.372.

In the case of RRIRMRPPRLPRPRPRPHVIPRP, the “shrunken log2 fold change” value worked out at 0.00402.

Take RRIRKRPPRLPRPRPRPHVIPRP: the “shrunken log2 fold change” value is -0.257. Under RRIRRRPPRLPRPRPRPCEPPRP stands -0.0751; under RRIRFRPPRLPRPRPRPFAHPRP, -0.0794; under RRIRHRPPRLPRPRPRPNPFPRP, -0.67. The value for RRIRYRPPRLPRPRPRPEWWPRP was -0.0484.

As to RRIRTRPPRLPRPRPRPMVCPRP, the “shrunken log2 fold change” value was 0.0039. Under RRIRWRPPRLPRPRPRPQTQPRP stands 0.516; under RRIRNRPPRLPRPRPRPEICPRP, 0.0654. Consider RRIRPRPPRLPRPRPRPWEPPRP, for which the “shrunken log2 fold change” value turned out to be 0.0548. Under RRIRWRPPRLPRPRPRPQDAPRP stands -0.0395; under RRIRFRPPRLPRPRPRPTHDPRP, 0.241. Under RRIRMRPPRLPRPRPRPHKCPRP stands 0.0429. Regarding RRIRLRPPRLPRPRPRPLVGPRP, the “shrunken log2 fold change” value is 0.246. Under RRIRARPPRLPRPRPRPQVVPRP stands -0.0726; under RRIRYRPPRLPRPRPRPRVQPRP, -0.617. The value for RRIRARPPRLPRPRPRPECHPRP was 1.38; that for RRIRRRPPRLPRPRPRPHRWPRP was 0.409. As for RRIRSRPPRLPRPRPRPKKRPRP, the “shrunken log2 fold change” value came out at 0.716.

RRIRVRPPRLPRPRPRPSMIPRP: the “shrunken log2 fold change” value was -0.375. As for RRIRERPPRLPRPRPRPALNPRP, the “shrunken log2 fold change” value came to 0.0441. As to RRIRIRPPRLPRPRPRPRQGPRP, the “shrunken log2 fold change” value was determined as 0.0734. Under RRIRSRPPRLPRPRPRPPGWPRP stands 0.193; under RRIRLRPPRLPRPRPRPQFLPRP, -0.0896; under RRIRIRPPRLPRPRPRPYYVPRP, -0.481. With RRIRGRPPRLPRPRPRPREQPRP, the “shrunken log2 fold change” value is 0.857. Under RRIRNRPPRLPRPRPRPRCYPRP stands -0.0588; under RRIRARPPRLPRPRPRPGNNPRP, -0.0708; under RRIRHRPPRLPRPRPRPDCLPRP, -0.228.

Turning to RRIRSRPPRLPRPRPRPPESPRP, the “shrunken log2 fold change” value came out at 0.877. The value for RRIRFRPPRLPRPRPRPEKEPRP was -0.0104.

In the case of RRIRSRPPRLPRPRPRPNPEPRP, the “shrunken log2 fold change” value was 0.0679.

Consider RRIRWRPPRLPRPRPRPDLAPRP, for which the “shrunken log2 fold change” value was 0.953. Under RRIRMRPPRLPRPRPRPHRDPRP stands 0.169. The value for RRIRCRPPRLPRPRPRPNDGPRP was -0.00783. Under RRIRQRPPRLPRPRPRPISLPRP stands -0.527.

With RRIRGRPPRLPRPRPRPFISPRP, the “shrunken log2 fold change” value is 0.183. Under RRIRERPPRLPRPRPRPQKHPRP stands -0.608. The value for RRIRYRPPRLPRPRPRPLDDPRP was -0.115; that for RRIRDRPPRLPRPRPRPQMAPRP was 0.116; that for RRIRWRPPRLPRPRPRPYHVPRP was -0.141. Under RRIRYRPPRLPRPRPRPKNQPRP stands -0.777. Take RRIRDRPPRLPRPRPRPPPHPRP: the “shrunken log2 fold change” value was 0.623.
